Assays:
[1] = target: Human CD19, wild-type full-length protein expressed on cells (human) (UniProt P15391); assay: high-throughput flow cytometry, HEK-293T cells transfected with WT CD19; mean of four replicates; empty vector 0
[2] = target: Human CD19, wild-type full-length protein expressed on cells (human) (UniProt P15391); assay: high-throughput flow cytometry, HEK-293T cells with WT CD19 vs vector, at 0.25 ug/ml
[3] = target: FITC-Labeled human CD19 protein (ACROBiosystem, Cat-CD9-HF251) (human) (UniProt P15391); assay: flow cytometry, ND539 CAR T cells day 9; CD19-FITC protein premixed with anti-CD19 PE (FMC63 clone) 1:1; PE signal read on the cells that hold CD19-FITC by their CAR; competitor CD19 CAR 52 (untransduced 2.25)
[4] = target: FITC-Labeled human CD19 protein (ACROBiosystem, Cat-CD9-HF251) (human) (UniProt P15391); assay: flow cytometry, ND539 CAR T cells day 9; CD19-FITC protein premixed with anti-CD19 PE (FMC63 clone) 1:1; PE signal read on the cells that hold CD19-FITC by their CAR; competitor CD19 CAR 44 (untransduced 2.25)
[5] = target: FITC-Labeled human CD19 protein (ACROBiosystem, Cat-CD9-HF251) (human) (UniProt P15391); assay: flow cytometry, ND539 CAR T cells day 9; CD19-FITC protein premixed with anti-CD19 PE (FMC63 clone) 1:1; PE signal read on the cells that hold CD19-FITC by their CAR; competitor CD19 CAR 46 (untransduced 2.25)
[6] = target: FITC-Labeled human CD19 protein (ACROBiosystem, Cat-CD9-HF251) (human) (UniProt P15391); assay: flow cytometry, ND539 CAR T cells day 9; CD19-FITC protein premixed with anti-CD19 PE (FMC63 clone) 1:3; PE signal read on the cells that hold CD19-FITC by their CAR; competitor CD19 CAR 46 (untransduced 2.95)
[7] = target: FITC-Labeled human CD19 protein (ACROBiosystem, Cat-CD9-HF251) (human) (UniProt P15391); assay: flow cytometry, ND539 CAR T cells day 9; CD19-FITC protein premixed with anti-CD19 PE (FMC63 clone) 1:1; PE signal read on the cells that hold CD19-FITC by their CAR; competitor CD19 CAR 43 (untransduced 2.25)
[8] = target: FITC-Labeled human CD19 protein (ACROBiosystem, Cat-CD9-HF251) (human) (UniProt P15391); assay: flow cytometry, ND539 CAR T cells day 9; CD19-FITC protein premixed with anti-CD19 PE (FMC63 clone) 1:3; PE signal read on the cells that hold CD19-FITC by their CAR; competitor CD19 CAR 42 (untransduced 2.95)
[9] = target: FITC-Labeled human CD19 protein (ACROBiosystem, Cat-CD9-HF251) (human) (UniProt P15391); assay: flow cytometry, ND539 CAR T cells day 9; CD19-FITC protein premixed with anti-CD19 PE (FMC63 clone) 1:3; PE signal read on the cells that hold CD19-FITC by their CAR; competitor CD19 CAR 45 (untransduced 2.95)
[10] = target: FITC-Labeled human CD19 protein (ACROBiosystem, Cat-CD9-HF251) (human) (UniProt P15391); assay: flow cytometry, ND539 CAR T cells day 9; CD19-FITC protein premixed with anti-CD19 PE (FMC63 clone) 1:3; PE signal read on the cells that hold CD19-FITC by their CAR; competitor CD19 CAR 43 (untransduced 2.95)
[11] = target: FITC-Labeled human CD19 protein (ACROBiosystem, Cat-CD9-HF251) (human) (UniProt P15391); assay: flow cytometry, ND539 CAR T cells day 9; CD19-FITC protein premixed with anti-CD19 PE (FMC63 clone) 1:3; PE signal read on the cells that hold CD19-FITC by their CAR; competitor CD19 CAR 44 (untransduced 2.95)
[12] = target: FITC-Labeled human CD19 protein (ACROBiosystem, Cat-CD9-HF251) (human) (UniProt P15391); assay: flow cytometry, ND539 CAR T cells day 9; CD19-FITC protein premixed with anti-CD19 PE (FMC63 clone) 1:3; PE signal read on the cells that hold CD19-FITC by their CAR; competitor CD19 CAR 52 (untransduced 2.95)
[13] = target: FITC-Labeled human CD19 protein (ACROBiosystem, Cat-CD9-HF251) (human) (UniProt P15391); assay: flow cytometry, ND539 CAR T cells day 9; CD19-FITC protein premixed with anti-CD19 PE (FMC63 clone) 1:1; PE signal read on the cells that hold CD19-FITC by their CAR; competitor CAR-FMC63 (untransduced 2.25)
[14] = target: FITC-Labeled human CD19 protein (ACROBiosystem, Cat-CD9-HF251) (human) (UniProt P15391); assay: flow cytometry, ND539 CAR T cells day 9; CD19-FITC protein premixed with anti-CD19 PE (FMC63 clone) 1:3; PE signal read on the cells that hold CD19-FITC by their CAR; competitor CAR-FMC63 (untransduced 2.95)
[15] = target: FITC-Labeled human CD19 protein (ACROBiosystem, Cat-CD9-HF251) (human) (UniProt P15391); assay: flow cytometry, ND539 CAR T cells day 9; CD19-FITC protein premixed with anti-CD19 PE (FMC63 clone) 1:1; PE signal read on the cells that hold CD19-FITC by their CAR; competitor CD19 CAR 45 (untransduced 2.25)
[16] = target: FITC-Labeled human CD19 protein (ACROBiosystem, Cat-CD9-HF251) (human) (UniProt P15391); assay: flow cytometry, ND539 CAR T cells day 9; CD19-FITC protein premixed with anti-CD19 PE (FMC63 clone) 1:1; PE signal read on the cells that hold CD19-FITC by their CAR; competitor CD19 CAR 42 (untransduced 2.25)
SIGLEC 9 = target: T1, SIGLEC 9 (UniProt Q9Y336 18-348, limits assumed); assay: counter-screen of the scFv clones against SIGLEC (Step 3)
T1 construct: Counter-screen reagent of Step 3

SIGLEC 8 = target: T2, SIGLEC 8 (UniProt Q9NYZ4 17-363, limits assumed); assay: as above
T2 construct: Counter-screen reagent of Step 3

SIGLEC 7 = target: T3, SIGLEC 7 (UniProt Q9Y286 19-357, limits assumed); assay: as above
T3 construct: Counter-screen reagent of Step 3

[17] = target: T4, Human CD19, wild-type full-length protein expressed on cells (human, UniProt P15391 20-556); assay: scFv clone screen on NALM6 cells with and without CD19
T4 construct: also called WT CD19; CD19 wild type protein
T4 sequence: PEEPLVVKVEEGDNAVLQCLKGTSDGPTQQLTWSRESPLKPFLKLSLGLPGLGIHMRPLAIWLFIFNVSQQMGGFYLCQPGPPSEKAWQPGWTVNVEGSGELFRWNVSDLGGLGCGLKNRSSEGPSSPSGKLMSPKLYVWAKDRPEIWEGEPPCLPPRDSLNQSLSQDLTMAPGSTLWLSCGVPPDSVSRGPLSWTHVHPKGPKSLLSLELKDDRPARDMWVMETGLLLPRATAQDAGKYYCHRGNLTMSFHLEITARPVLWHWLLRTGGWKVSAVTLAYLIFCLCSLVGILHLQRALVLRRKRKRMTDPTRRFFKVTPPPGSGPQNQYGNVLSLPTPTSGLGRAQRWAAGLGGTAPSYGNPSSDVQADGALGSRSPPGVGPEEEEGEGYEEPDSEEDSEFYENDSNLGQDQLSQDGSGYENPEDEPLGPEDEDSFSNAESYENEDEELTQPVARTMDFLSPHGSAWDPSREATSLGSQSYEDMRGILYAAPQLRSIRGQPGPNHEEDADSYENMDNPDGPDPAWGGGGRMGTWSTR
Text: To ensure that the up to (30) clones could recognize native CD19 expressed on tumor cells, the clones (scFv) were also screened against NALM6 tumor cell line positive (+) CD19 expression (NALM6 cell line⁺ CD19). CD19 knockout Nalm6 cell line (NALM6 cell line⁻ CD1; or CD19KO Nalm6 cell line) were used as a negative control for the selection. CD19KO Nalm6 cell lines used for the screen were engineered CRISPR knocked-out (KO) Nalm6-CD19KO cells. Clones that bound CD19⁺ NALM6 tumor cells, but not CD19-NALM6 tumor cells (CD19KO) were selected (Step 4).

T3 sequence (Q9Y286 19-357 limits assumed): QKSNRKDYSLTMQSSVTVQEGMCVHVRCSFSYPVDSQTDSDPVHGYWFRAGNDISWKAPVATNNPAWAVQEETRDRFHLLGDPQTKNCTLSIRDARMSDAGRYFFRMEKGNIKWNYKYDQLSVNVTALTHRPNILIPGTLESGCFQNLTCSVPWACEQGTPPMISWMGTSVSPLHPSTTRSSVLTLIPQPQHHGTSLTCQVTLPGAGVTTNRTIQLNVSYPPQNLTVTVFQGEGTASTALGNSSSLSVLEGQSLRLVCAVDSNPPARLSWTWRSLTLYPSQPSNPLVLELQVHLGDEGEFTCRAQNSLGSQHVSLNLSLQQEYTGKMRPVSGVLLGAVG
T1 sequence (Q9Y336 18-348 limits assumed): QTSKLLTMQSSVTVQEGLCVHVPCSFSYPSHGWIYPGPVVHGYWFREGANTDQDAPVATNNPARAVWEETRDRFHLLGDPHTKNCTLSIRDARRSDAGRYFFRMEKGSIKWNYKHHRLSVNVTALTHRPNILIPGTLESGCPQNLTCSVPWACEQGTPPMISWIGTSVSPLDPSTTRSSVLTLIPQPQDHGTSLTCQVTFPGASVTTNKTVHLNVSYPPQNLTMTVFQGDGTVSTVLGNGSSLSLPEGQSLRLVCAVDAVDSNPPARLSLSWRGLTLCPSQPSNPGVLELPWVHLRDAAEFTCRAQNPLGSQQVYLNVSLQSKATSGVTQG
T2 sequence (Q9NYZ4 17-363 limits assumed): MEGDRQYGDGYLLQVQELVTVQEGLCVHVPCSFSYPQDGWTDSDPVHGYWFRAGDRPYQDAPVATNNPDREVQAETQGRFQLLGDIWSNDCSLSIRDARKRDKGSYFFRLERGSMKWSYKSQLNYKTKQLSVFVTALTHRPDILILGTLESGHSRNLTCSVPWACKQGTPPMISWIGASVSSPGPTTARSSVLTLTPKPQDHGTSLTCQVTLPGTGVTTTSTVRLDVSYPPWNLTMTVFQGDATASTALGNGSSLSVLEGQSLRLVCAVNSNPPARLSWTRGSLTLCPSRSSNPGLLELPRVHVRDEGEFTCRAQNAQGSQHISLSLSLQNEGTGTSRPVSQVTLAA

What does the source list for “HIB19 monoclonal antibody (BioLegend, Cat no. 302202)”?
mfi at 0.125 ug/ml [1]: 500000 mfi; mfi at 0.250 ug/ml [1]: 750000 mfi; mfi at 0.500 ug/ml [1]: 1.25e+06 mfi; mfi at 1.000 ug/ml [1]: 1.75e+06 mfi; mfi at 2.000 ug/ml [1]: 1.75e+06 mfi; mfi at 4.000 ug/ml [1]: 2e+06 mfi; Signal:Background [2]: 50

How did the Gated for Anti-CD19 PE Expression [3] turn out when Anti CD19 (FMC63 Clone)-PE (antibody) was run?
Its Gated for Anti-CD19 PE Expression is 3.29 mfi.

What about the Gated for Anti-CD19 PE Expression [4] of the same molecule?
Its Gated for Anti-CD19 PE Expression is 1.73 mfi.

What about the Gated for Anti-CD19 PE Expression [5] of the same molecule?
Its Gated for Anti-CD19 PE Expression is 0.12 mfi.

What about the Gated for Anti-CD19 PE Expression [6] of the same molecule?
The Gated for Anti-CD19 PE Expression was 0.78 mfi.

What about the Gated for Anti-CD19 PE Expression [7] of the same molecule?
Its Gated for Anti-CD19 PE Expression is 0.041 mfi.

What about the Gated for Anti-CD19 PE Expression [8] of the same molecule?
The Gated for Anti-CD19 PE Expression was 0.48 mfi.

What about the Gated for Anti-CD19 PE Expression [9] of the same molecule?
The Gated for Anti-CD19 PE Expression was 18.1 mfi.

What about the Gated for Anti-CD19 PE Expression [10] of the same molecule?
Its Gated for Anti-CD19 PE Expression is 0.97 mfi.

And the Gated for Anti-CD19 PE Expression [11]?
Its Gated for Anti-CD19 PE Expression is 1.26 mfi.

What about the Gated for Anti-CD19 PE Expression [12] of the same molecule?
Its Gated for Anti-CD19 PE Expression is 2.35 mfi.

And the Gated for Anti-CD19 PE Expression [13]?
The Gated for Anti-CD19 PE Expression was 0.8 mfi.

What about the Gated for Anti-CD19 PE Expression [14] of the same molecule?
The Gated for Anti-CD19 PE Expression was 1.63 mfi.

And the Gated for Anti-CD19 PE Expression [15]?
Its Gated for Anti-CD19 PE Expression is 15.9 mfi.

And the Gated for Anti-CD19 PE Expression [16]?
Its Gated for Anti-CD19 PE Expression is 0.045 mfi.

B1: CD19 E7 scFv (P4) (scFv)
scFv: DIQMTQSPSSLSASVGDRVTITCRASQDITRYLNWYQQKPGKAPKLLIYAASSLQSGVPSRFSGSGSGTDFTLTISSLQPEDFATYYCQQSYSYPPTFGQGTKVEIKGGGGSGGGGSGGGGSQVQLVESGGGVVQPGRSLRLSCAASGFTFRDYGMHWVRQAPGKGLEWVAVISYEGSNEYYADSVKGRFTISRDNSKNTLYLQMNSLRAEDTAVYYCARDRGFAGWYDYAFDPWGQGTLVTVSS
notes: also called 45; clone 45
What does the source list for B1?
binding result (SIGLEC 9): no binding; binding result (SIGLEC 8): no binding; binding result (SIGLEC 7): no binding; binding result [17]: binds

— patent US20240123068A1 (KITE PHARMA, published 2024)
